# According to patent US20240327502A1 (Merck Sharp & Dohme, published 2024):
# Where a chain is given by its changes, count along the chain named.
# B1: M4B11 (antibody, V domains shown)
# VH: QVQLVQSGTEVQTPGASVKVSCKTSGYIFTGYFMHWVRQAPGQGFEWMGWVNPYSGATTYAQKFQGRVTMTRDTSISTVYMELSRLTSDDTAIYYCAKDTSNSGPDLLEHWGQGTLVIVSS
# VL: EIVLTQSPATLSLSPGERATLSCRASQSISNFLVWYQRKPGQAPRLLIFDVSKRATGIPTRFSGSGSGTDFTLTISSLEPEDFAVYYCQQRSNWPPGYTFGQGTKLEIK
# notes: IgG
# B2: M2D01 (antibody, V domains shown)
# VH: QVQLQESGPGVVKPSETLSLTCTVSRGAITDYHLNWIRQPPGKGLEWIGYISSSGSTNYNPSLKSRVTISQVMSGTQFSLKLTSMSAADTALYYCASSSGRYWGGALDLWGQGTQVIVSS
# VL: DIVMTQSPDSLAVPLGERATINCKSSQSLLYTSNNKNSLAWYQQKPGQPPKLLLFWASTREFRVPDRFSGSGSGTDFTLTISSLQAEDVAVYYCQQYYTAPYTFGPGTKLEIK
# notes: IgG
# B3: M2A03 (antibody, V domains shown)
# VH: QLQLQESGPGLVKPSETLSLTCSVSGGSISSSSNSWTWIRQPPGKGLEWIATIFYFGSTYYNPSLRSRVAISVDTSENQFSLKLTSVTAADTAVYFCARHILSSSGVSGWLDPWGQGTLVTVSS
# VL: SYELTQPPSVSVSPGQTASITCSGEKLGSKYAHWYQQKPGRSPVLVIYQDTKRPSGIPERFSGSNSGSTATLTISGTQAMDEADYYCQAWDSSSFVFGTGTTVTVL
# notes: IgG
# B4: M4C03 (antibody, V domains shown)
# VH: EVQLVESGGTLVQPGGSLRLSCAASGFRFNAFSMNWVRQAPGKGLEWVSYIDSRSNIIYYADSVKGRFTISRDNAKTSLYLRMSSLRDEDTAVYYCAKALCVVNYDFWSGLLGCAMDVWGQGTTVTVSS
# VL: QSVLTQPPSVSGAPGQRVTISCTGTTSNIGAGFDVHWYQQVPGTAPKLLIYANTDRPSGVPDRFSASKSGTSASLAITGLQVEDEAHYYCQTYDTTLSGSTVFGGGTKLTVL
# notes: IgG
# B5: M4C08 (antibody, V domains shown)
# VH: B4 VH with R28K, T77N
# VL: B4 VL with T25N, V82A, H87D, T95R, T96S
# notes: IgG
# B6: M4F8 (antibody, V domains shown)
# VH: QVQLVQSGPEVKKPGASVKISCKASEYTFTNHYLHWVRQAPGQGLEWLGIINPTGGSTYYAGDFQGRVTLTRDASTTTVYMELSSVKSEDTAIYYCARDRGMRYFDYWGQGTLVTVSS
# VL: QSVLTQPPSVSGAPGQRVSISCTGISSNIGATYDVHWYQQLPGTAPKLLIYGNNNRPSGVPDRFSGSKSGTSASLAITGLQAEDEAVYYCQSYDSVLSGSVIFGGGTILTVL
# notes: IgG
# B7: M2B12 (antibody, V domains shown)
# VH: QVQLVESGGGVVQPGRSLRLSCEASGFTFSSSAMHWVRQAPGKGLEWVAIISYHGTNKDYSDSVRGRFTISRDNSKNTLYLQMNGLRGDDTAVYYCAKEAAVSGNFDSWGQGTMVTVSS
# VL: QLVLTQSPSASASLGASVKLTCTLISGPSNYAIAWHRQQPQKGPRYLMKVNSDGSHTKGDGIPDRFSGSSSGTERYLIISNLQSEDEADYYCQTWGSGIYVFGPGTKVTVL
# notes: IgG
# B8: M4B05 (antibody, V domains shown)
# VH: QVQLVQSGPEVRKPGASVIISCKASGYSFISYYIHWVRQAPGQGLEWMGIINPSGGSTEYAQKYQGRLTITRDTSTTTVSMTLSSLRSDDTAVYFCAREQAVGAYDIWGQGTMVTVSS
# VL: EIVLTQSPGTLSLSPGERATLSCRAGQLINGNYLAWYQKKPGQAPSLLIYDVSRRAAGVPDRFTGSGSGTDFTLTISRLEPDDFAVYYCQHYGRSPSPTFGGGTKVEIK
# notes: IgG
# B9: M2B10 (antibody, V domains shown)
# VH: QVQLVESGGGVVQPGRSLRLSCAASGFTFSNYPMHWVRQAPGKGLAWVALISYDGRTKYYADSVKGRFTISRDNSMNTVYLQMNSLRAEDTAVYYCAREGLEYLNYWGQGTLVTVSS
# VL: EIVLTQSPGTLSLSPGERATLSCRASQSISSNSLAWYQQKPGQAPRLLSYGTSNRATGIPDRFSGSGSGTDFTLTISRLEPEDFAVYYCQQYGSSPLTFGPGTKVDIK
# notes: IgG
# B10: M2B09 (antibody, V domains shown)
# VH: QVQLVQSGPEVKGPGASVRVSCKANGYTFTSYGINWVRQTPGQGLQWMGWISVHTDDTKDVQQFQDRVTMTTDTSTSTVFMELRNLRFDDTAVYYCARDRTDISGRVRDAFDLWGQGTLVTVSS
# VL: SYVLTQPPSVSVAPGQTAKITCGGNNIGSKSVHWYRQKPGQAPVLVVYDDSDRPSGIPERFSGSNSGNTATLTISRVEAGDEADYYCHVWDSYSDPNYVFGSGTKVTVL
# notes: IgG
# B11: M3A07 (antibody, V domains shown)
# VH: QVQLVQSGAEVQKPGASVKVSCKASGYTFTRHAIHWVRQAPGQRLEWIGWVHGGNENTKYSQKLQGRVTITRDTSASTAYMELNSLRYEDTAVYYCATAMPGAFNMWGQGTVVTVSS
# VL: DIQMTQSPSTLSASVGDRVTITCRASQSISSWVAWYQQKPGKAPKLLIYKAFSLETGVPSRFSGSGSGTEFTLTISSLQPDDCATYYCQQYGSFSEFTFGQGTKLEIK
# notes: IgG
# B12: M2A06 (antibody, V domains shown)
# VH: QVQLVQSGAEVKKPGASVKISCKASGYSFSNYYIQWVRQAPGQGLEWLGIINPSGGSTDYAQKFEGRVSMTRDTSTNTVYMEMSSLRSEDTASYYCVRSLANGSGSPWGQGTLVIVSS
# VL: DIQMTQSPSTLSASVGDRVTITCRASQSISSRLAWYQQKPGKAPNLLLYDASRSESGVPSRFSGSGSGTEFTLTISSLQPDDVATYYCQHYSIYSRWTFGQGTKVEIK
# notes: IgG
# B13: M2A02 (antibody, V domains shown)
# VH: QVQLVQSGAEVKRPGSSVKVSCKASGDIFSSHAISWVRQTPGQGLKWMGRIIPLVGIRNYAQDLQGRVTISADKSINTVYMELTNLRFDDTAVYYCARDRTDWSGGLDIWGQGTRVTVSS
# VL: EIVLTQSPATLSLSPGERATLSCRASQRIGSYLAWYQQKPGQAPRLLIYDASNRATGIPARFSGSGSGTDFTLTISRLEPEDSAIYYCQQRTDWFTFGGGTKVEIK
# notes: IgG
# B14: M2A05 (antibody, V domains shown)
# VH: QITLKESGPTLVKPTQTLTLTCTVSGFSLSANSVGVAWFRQPPGKAPEWLGVIYWDDDKRFSPSLKTRLSITKDASTSQVVLRLTNVSPLDTATYYCVRKHYDLLQWGQGAPVTVSS
# VL: EIVLTQSPGTLSLSPGEGATLSCRASRSVNSDYIAWYQHKPGLAPRLLIYAASTRATDIPDRFRADVSGTDFTLTIDRLEPDDFAVYYCQQYGSAVWTFGQGTRVEVK
# notes: IgG
# B15: M4C04 (antibody, V domains shown)
# VH: RVTLRESGPALLKPTQTLTLTCTFSGFSLNTYGMSVNWIRQPPGKALEWLSRIDWDGDKYFNTSLKTRLTISKDTSKNQVVLTMTNMEPVDTATYYCAQSVIVPAQSFVSWFDPWGPGTLVTVSS
# VL: EIVMTQSPATLSVSPGERATLSCRASQSVRSNLAWYQQKPGQAPRLLIYGASSRATGIPARFSGSGSGTEFTLTISSLQSEDLAIYYCQQYNNWPPGAFGQGTKVEIK
# notes: IgG
# B16: M2F01 (antibody, V domains shown)
# VH: QVQLVQSGAEVKKPGASVKVSCKASEDTFTNYYMHWVRQAPGQGLEWMGIINPSGGSTDYAQKFQGRVTMTRDTSTSTVYMELSSLRSEDTAMYYCARQGRTAACDYWGQGTLVTVSS
# VL: DIQMTQSPSSVSASVGDRVTITCRASQGIRSWLAWYQQKPGKAPKLLIYAASTLQSGVPSRFSGSGSGTDFTLTISSLQPEDFATYYCQQSNSFSLFTFGPGTRVDIK
# notes: IgG
# B17: M2D2 (antibody, V domains shown)
# VH: QVQLVQSGAEVKKPGASVKVSCKASGYNFDNYYMSWVRQAPGQGLEWLGIIDPSGGRISYAPKFQGRVTLTRDTSTSTVYMELRGLRFEDTALYYCARLEATHEGPWGQGTLVTVSS
# VL: QSVLTQPPSASGTPGQRVTISCSGSNSNIGSSTVNWYQQLPGTAPKLLIYSDNHRPSGVPDRFSGSRSGTSASLVISGLHSEDEADYYCGTWDDGLNGPYVFGTGTKVTVL
# notes: IgG
# Target: T1, Processed stabilized hMPV PreF trimer (115BV) (human metapneumovirus, strain B2)
# T1 construct: also called Processed hMPV PreF trimer; processed PreF
# Experiment: BLI, mAb on anti-human Fc sensor
row,Binder,Octet binding response [nm]
1,B1,0.0489
2,B2,0.0622
3,B3,0.109
4,B4,0.0323
5,B5,0.0268
6,B6,0.0584
7,B7,0.438
8,B8,0.0529
9,B9,0.0278
10,B10,0.0092
11,B11,0.0536
12,B12,0.052
13,B13,0.0795
14,B14,0.447
15,B15,0.303
16,B16,0.0736
17,B17,0.351

# Target: T2, Unprocessed hMPV PreF trimer (human metapneumovirus, strain B2)
# T2 construct: also called Unprocessed hMPV WT PreF trimer; unprocessed hMPV PreF trimeric antigen
# Experiment: BLI, mAb on anti-human Fc sensor
row,Binder,Octet binding response [nm]
1,B1,0.273
2,B2,0.33
3,B3,0.369
4,B4,0.263
5,B5,0.222
6,B6,0.271
7,B7,0.378
8,B8,0.281
9,B9,0.209
10,B10,0.302
11,B11,0.324
12,B12,0.237
13,B13,0.261
14,B14,0.378
15,B15,0.342
16,B16,0.335
17,B17,0.362

# Target: T3, hMPV PostF trimer (human metapneumovirus, strain B2)
# T3 construct: also called MPV PostF (dPFv1)
# Experiment: BLI, mAb on anti-human Fc sensor
row,Binder,Octet binding response [nm]
1,B1,0.426
2,B2,0.493
3,B3,0.477
4,B4,0.506
5,B5,0.467
6,B6,0.0408
7,B7,0.445
8,B8,-0.0395
9,B9,-0.0646
10,B10,-0.0435
11,B11,-0.022
12,B12,-0.0352
13,B13,-0.0402
14,B14,0.449
15,B15,0.442
16,B16,-0.0326
17,B17,0.454

# Target: T1, Processed stabilized hMPV PreF trimer …
# Experiment: BLI, ratio to unprocessed PreF trimer
row,Binder,processed/unprocessed PreF trimer binding ratio
1,B1,0.18
2,B2,0.19
3,B3,0.29
4,B4,0.12
5,B5,0.12
6,B6,0.22
7,B7,1.16
8,B8,0.19
9,B9,0.13
10,B10,0.03
11,B11,0.17
12,B12,0.22
13,B13,0.3
14,B14,1.18
15,B15,0.89
16,B16,0.22
17,B17,0.97
